In paper PMC6882858, “Seryl tRNA synthetase cooperates with POT1 to regulate telomere length and cellular senescence” (Signal Transduction and Targeted Therapy, 2019):

B1: recombinant POT1 with a His6 tag at its C-terminal end (natural protein, human, UniProt Q9NUX5 1-634, looked up)
chain: MSLVPATNYIYTPLNQLKGGTIVNVYGVVKFFKPPYLSKGTDYCSVVTIVDQTNVKLTCLLFSGNYEALPIIYKNGDIVRFHRLKIQVYKKETQGITSSGFASLTFEGTLGAPIIPRTSSKYFNFTTEDHKMVEALRVWASTHMSPSWTLLKLCDVQPMQYFDLTCQLLGKAEVDGASFLLKVWDGTRTPFPSWRVLIQDLVLEGDLSHIHRLQNLTIDILVYDNHVHVARSLKVGSFLRIYSLHTKLQSMNSENQTMLSLEFHLHGGTSYGRGIRVLPESNSDVDQLKKDLESANLTANQHSDVICQSEPDDSFPSSGSVSLYEVERCQQLSATILTDHQYLERTPLCAILKQKAPQQYRIRAKLRSYKPRRLFQSVKLHCPKCHLLQEVPHEGDLDIIFQDGATKTPDVKLQNTSLYDSKIWTTKNQKGRKVAVHFVKNNGILPLSNECLLLIEGGTLSEICKLSNKFNSVIPVRSGHEDLELLDLSAPFLIQGTIHHYGCKQCSSLRSIQNLNSLVDKTSWIPSSVAEALGIVPLQYVFVMTFTLDDGTGVLEAYLMDSDKFFQIPASEVLMDDDLQKSVDMIMDMFCPPGIKIDAYPWLECFIKSYNVTNGTDNQICYQIFDTTVAEDVI
notes: also called His6-tagged POT1; pET-20b-POT1; not shown: His6, C-terminal, kept
B2: GST-fused full-length POT1 (natural protein, human, UniProt Q9NUX5 1-634, looked up)
chain: B1 chain
notes: Held on beads in the GST pull-down; also called GST-POT1 FL; pGEX6P-1-POT1; not shown: GST, N-terminal, kept

What was measured:
[1] = biological target: T1, GST-fused full length SerRS (human, UniProt P49591 1-514); test: pull-down; GST-fusion proteins bound to beads incubated with 0.5 uM purified recombinant His6-tagged protein in 500 ul GST pulldown buffer (150 mM NaCl, 20 mM HEPES pH 7.9, 0.5 mM EDTA, 0.1% Triton X-100, 10% glycerol, 1 mM DTT) overnight at 4 °C; washed 5 times; western blot with anti-His or anti-GST; settings: both partners purified
T1 construct: also called GST-SerRS FL; pGEX6P-1-SerRS
T1 sequence (P49591 whole entry, the tested form may be a part): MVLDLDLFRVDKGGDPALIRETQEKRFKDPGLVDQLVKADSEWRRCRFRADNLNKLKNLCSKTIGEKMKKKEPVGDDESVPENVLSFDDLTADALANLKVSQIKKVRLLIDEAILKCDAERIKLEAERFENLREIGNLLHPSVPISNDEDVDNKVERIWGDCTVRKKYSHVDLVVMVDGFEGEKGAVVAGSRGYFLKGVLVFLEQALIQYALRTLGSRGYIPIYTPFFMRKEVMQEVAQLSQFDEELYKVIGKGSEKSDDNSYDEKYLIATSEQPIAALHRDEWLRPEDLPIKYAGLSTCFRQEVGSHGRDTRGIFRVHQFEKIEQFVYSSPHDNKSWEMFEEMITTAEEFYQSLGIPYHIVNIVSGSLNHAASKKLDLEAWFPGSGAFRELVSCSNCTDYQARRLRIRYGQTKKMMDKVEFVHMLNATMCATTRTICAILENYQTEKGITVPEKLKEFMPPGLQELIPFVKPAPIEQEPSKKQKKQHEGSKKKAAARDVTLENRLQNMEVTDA

[2] = biological target: T2, purified His6-tagged SerRS (human, UniProt P49591 1-514); test: as above; settings: both partners purified
T2 construct: also called recombinant SerRS; PET-20b-SerRS
T2 sequence (P49591 whole entry): as the sequence (P49591 whole entry, the tested form may be a part) above

Binder | binding result [1] | binding result [2]
B1 | binds | –
B2 | – | binds
